Measurements from patent US11344606B2, “Parathyroid hormone fusion polypeptide” (University of Sheffield, priority 2017, dated 2022).

Assays:
[1] = system: UMR-106 cells (PTH responsive cell line); assay: In vitro induction of cAMP in UMR-106 cells (cAMP ELISA); type: cell-based, rat
Experimental: FIG. 3: In Vitro Bioactivity of 14A1 and 14A2 proteins. Purified proteins were tested for their ability to stimulate cAMP production from the PTH responsive cell line, UMR-106 (rat osteoblastic like cell line). Cells were stimulated for 15 minutes in the presence of test molecules and cAMP levels measured from cell lysates using a cAMP specific Elisa. […] Data is presented as pmol cAMP/ml+/−Standard deviation;
FIG. 29A: In vitro induction of cAMP. […] Cells were lysed and cAMP levels measured using an R & D systems Parameter cAMP Elisa. Data are presented as log pmol cAMP/ml±SD. […] Average of n=1 experiment carried out in duplicate.
Purified proteins were tested for their ability to stimulate cAMP production from the PTH responsive cell line, UMR-106 (rat osteoblastic like cell line). Cells were stimulated for 15 minutes in the presence of test molecules and cAMP levels measured from cell lysates using a cAMP specific Elisa (R&D systems).

[2] = system: UMR-106 cells; assay: Dual Luciferase Reporter Assay for cAMP activity (pGL4.29/CRE/Luc2) in UMR-106 cells; type: cell-based, rat; conditions: FIG. 29D
Text: Cells were lysed and Luciferase activity measured using the Promega Dual Luciferase Assay kit. Data are presented as fold induction of control±SD. […] Average of triplicate values. […] Representative of 3 separate experiments.
Cells were lysed and Luciferase activity measured using the Promega Dual Luciferase Assay kit. Data are presented as fold induction of control±SD.
FIG. 29D: Determination of EC50 values for PTH & PTH fusions using the Dual Luciferase Reporter Assay.

[3] = 500 nM PTH fusion, 15 minutes at 37° C./5% CO2, FIG. 29A, n=1 experiment in duplicate

fold by which PTH is more potent than the fusion (EC50 ratio) [2] | Molecule | cAMP levels (mean±SD) ([1]; 100 nM human PTH 1-34, 15 minutes at 37° C./5% CO2, FIG. 29A) | cAMP levels (mean±SD) [1, 3]
 | CC[C@H](C)[C@H](NC(=O)[C@H](CCC(=O)O)NC(=O)[C@H](CO)NC(=O)[C@@H](NC(=O)[C@@H](N)CO)C(C)C)C(=O)N[C@@H](CCC(N)=O)C(=O)N[C@@H](CC(C)C)C(=O)N[C@@H](CCSC)C(=O)N[C@@H](Cc1c[nH]cn1)C(=O)N[C@@H](CC(N)=O)C(=O)N[C@@H](CC(C)C)C(=O)NCC(=O)N[C@@H](CCCCN)C(=O)N[C@@H](Cc1c[nH]cn1)C(=O)N[C@@H](CC(C)C)C(=O)N[C@@H](CC(N)=O)C(=O)N[C@@H](CO)C(=O)N[C@@H](CCSC)C(=O)N[C@@H](CCC(=O)O)C(=O)N[C@@H](CCCNC(=N)N)C(=O)N[C@H](C(=O)N[C@@H](CCC(=O)O)C(=O)N[C@@H](Cc1c[nH]c2ccccc12)C(=O)N[C@@H](CC(C)C)C(=O)N[C@@H](CCCNC(=N)N)C(=O)N[C@@H](CCCCN)C(=O)N[C@@H](CCCCN)C(=O)N[C@@H](CC(C)C)C(=O)N[C@@H](CCC(N)=O)C(=O)N[C@@H](CC(=O)O)C(=O)N[C@H](C(=O)N[C@@H](Cc1c[nH]cn1)C(=O)N[C@@H](CC(N)=O)C(=O)N[C@@H](Cc1ccccc1)C(=O)O)C(C)C)C(C)C [PTH 1-34, reference compound] | 2551±186 pmol cAMP/ml | 
~18 fold | 14A2c: PTHss-pp-PTH (1-34)-(g4s)4-PTHrExt-(g4s)4-GHbp, SEQ ID NO: 13 (protein, Fusion proteins) MIPAKDMAKVMIVMLAICFLTKSDGKSVKKRSVSEIQLMHNLGKHLNSMERVEWLRKKLQDVHNFGGGGSGGGGSGGGGSGGGGSDDVMTKEEQIFLLHRAQAQCEKRLKEVLQRPASIMESDKGWTSASTSGKPRKDKASGKLYPESEEDKEAPTGSRYRGRPCLPEWDHILCWPLGAPGEVVAVPCPDYIYDFNHKGHAYRRCDRNGSWELVPGHNRTWANYSECVKFLTNETREREVFDRLGGGGSGGGGSGGGGSGGGGSFSGSEATAAILSRAPWSLQSVNPGLKTNSSKEPKFTKCRSPERETFSCHWTDEVHHGTKNLGPIQLFYTRRNTQEWTQEWKECPDYVSAGENSCYFNSSFTSIAIPYCIKLTSNGGTVDEKCFSVDEIVQPDPPIALNWTLLNVSLTGIHADIQVRWEAPRNADIQKGWMVLEYELQYKEVNETKWKMMDPILTTSVPVYSLKVDKEYEVRVRSKQRNSGNYGEFSEVLYVTLPQMSQ |  | 264±12 pmol cAMP/ml
28 fold | 14A3b: GHss-PTH (1-34)-(g4s)4-PTHrExt-(g4s)4-GHbp, SEQ ID NO: 14 (protein, Fusion proteins) MATGSRTSLLLAFGLLCLPWLQEGSASVSEIQLMHNLGKHLNSMERVEWLRKKLQDVHNFGGGGSGGGGSGGGGSGGGGSDDVMTKEEQIFLLHRAQAQCEKRLKEVLQRPASIMESDKGWTSASTSGKPRKDKASGKLYPESEEDKEAPTGSRYRGRPCLPEWDHILCWPLGAPGEVVAVPCPDYIYDFNHKGHAYRRCDRNGSWELVPGHNRTWANYSECVKFLTNETREREVFDRLGGGGSGGGGSGGGGSGGGGSFSGSEATAAILSRAPWSLQSVNPGLKTNSSKEPKFTKCRSPERETFSCHWTDEVHHGTKNLGPIQLFYTRRNTQEWTQEWKECPDYVSAGENSCYFNSSFTSIAIPYCIKLTSNGGTVDEKCFSVDEIVQPDPPIALNWTLLNVSLTGIHADIQVRWEAPRNADIQKGWMVLEYELQYKEVNETKWKMMDPILTTSVPVYSLKVDKEYEVRVRSKQRNSGNYGEFSEVLYVTLPQMSQ |  | 25±0.95 pmol cAMP/ml
